Data taken from patent US20230212288A1 (published 2023).
Blank lines part the entries; values can stand above or below the binder they belong to.

Target: human CD3 receptor complex (human, UniProt P07766 23-207; P09693 23-182; P04234 22-171)
Assay: cell-based or functional assay

Chain of human CD3 receptor complex (P07766 23-207, chain 1 of 3): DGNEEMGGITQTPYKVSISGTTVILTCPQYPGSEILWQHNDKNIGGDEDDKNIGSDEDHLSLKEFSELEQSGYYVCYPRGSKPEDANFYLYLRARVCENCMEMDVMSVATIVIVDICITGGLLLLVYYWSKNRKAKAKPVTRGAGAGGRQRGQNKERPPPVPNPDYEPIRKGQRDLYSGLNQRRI
Chain of human CD3 receptor complex (P09693 23-182, chain 2 of 3): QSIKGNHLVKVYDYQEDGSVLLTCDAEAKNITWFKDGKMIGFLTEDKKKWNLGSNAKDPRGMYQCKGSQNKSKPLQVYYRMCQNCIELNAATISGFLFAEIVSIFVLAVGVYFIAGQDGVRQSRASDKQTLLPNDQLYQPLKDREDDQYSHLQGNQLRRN
Chain of human CD3 receptor complex (P04234 22-171, chain 3 of 3): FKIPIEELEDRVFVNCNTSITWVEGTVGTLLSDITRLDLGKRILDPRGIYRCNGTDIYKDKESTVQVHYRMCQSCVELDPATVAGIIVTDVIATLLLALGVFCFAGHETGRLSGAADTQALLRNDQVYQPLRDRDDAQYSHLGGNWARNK

B1: 400_01_D06 (bispecific antibody)
chain: DIQLTQTPASLAVSLGQRATISCKASQSVDYDGDSYLNWYQQIPGQPPKLLIYDASNLVSGIPPRFSGSGSGTDFTLNIHPVEKVDAATYHCQQSTEDPWTFGGGTKLEIKGGSGGAMAQVQLVQSGAEVKKPGSSVKVSCKASGGTFSSYAISWVRQAPGQGLEWMGGIIPIFGTANYAQKFQGRVTITADESTSTAYMEVRSLRSDDTAVYYCVRDRGDYGDITYFDYWGQGTLVTVSSGGGGSGGGGSGGGASNFMLTQPHSVSESPGKTVTISCTGSSGSIASNYVQWYQQRPGSAPTIVIYEDNHRPSGVPDRFSGSIDSSSNSASLTISGLKTEDEADYYCQSYDSSDRVVFGGGTKVTVLGQPAAAGGGGSQVQLQQSGAELVRPGSSVKISCKASGYAFSSYWMNWVKQRPGQGLEWIGQIWPGDGDTNYNGKFKGKATLTADESSSTAYMQLSSLASEDSAVYFCARRETTTVGRYYYAMDYWGQGTSVTVSSASAAVECPPCPAPPVAGPSVFLFPPKPKDTLMISRTPEVTCVVVDVSHEDPEVQFNWYVDGVEVHNAKTKPREEQFNSTFRVVSVLTVVHQDWLNGKEYKCKVSNKGLPAPIEKTISKTKGQPREPQVYTLPPSREEMTKNQVSLTCLVKGFYPSDIAVEWESNGQPENNYKTTPPMLDSDGSFFLYSKLTVDKSRWQQGNVFSCSVMHEALHNHYTQKSLSLSPGK
Activity (EC50 for activation of Jurkat line cells, pM): 17.5 pM

B2: 400_03_H07 (bispecific antibody)
chain: DIQLTQTPASLAVSLGQRATISCKASQSVDYDGDSYLNWYQQIPGQPPKLLIYDASNLVSGIPPRFSGSGSGTDFTLNIHPVEKVDAATYHCQQSTEDPWTFGGGTKLEIKGGSGGAMAQVQLVESGGGVVQPGRSLRLSCAASGFTFSSYSMNWVRQAPGKGLEWVSSISSSSSYIYYADSVKGRFTISRDNAKNSLYLQMNSLRAEDTAVYYCARSGIAAAGFDYWGQGTLVTVSSGGGGSGGGGSGGGASNFMLTQPHSVSESPGKTVTISCARSSGSIASNYVQWYQQRPGSSPTTVIYEDNRRPSGVPDRFSGSFDSSSNSASLTISGLKTEDEADYYCQSYDSSNRVFGGGTKLTVLGQPAAAGGGGSQVQLQQSGAELVRPGSSVKISCKASGYAFSSYWMNWVKQRPGQGLEWIGQIWPGDGDTNYNGKFKGKATLTADESSSTAYMQLSSLASEDSAVYFCARRETTTVGRYYYAMDYWGQGTSVTVSSASAAVECPPCPAPPVAGPSVFLFPPKPKDTLMISRTPEVTCVVVDVSHEDPEVQFNWYVDGVEVHNAKTKPREEQFNSTFRVVSVLTVVHQDWLNGKEYKCKVSNKGLPAPIEKTISKTKGQPREPQVYTLPPSREEMTKNQVSLTCLVKGFYPSDIAVEWESNGQPENNYKTTPPMLDSDGSFFLYSKLTVDKSRWQQGNVFSCSVMHEALHNHYTQKSLSLSPGK
Activity (EC50 for activation of Jurkat line cells, pM): 328 pM

Now from value to binder:

Activity (EC50 for activation of Jurkat line cells, pM): 32.2 pM
B3: 309_02_F01 (bispecific antibody)
chain: DIQLTQTPASLAVSLGQRATISCKASQSVDYDGDSYLNWYQQIPGQPPKLLIYDASNLVSGIPPRFSGSGSGTDFTLNIHPVEKVDAATYHCQQSTEDPWTFGGGTKLEIKGGSGGAMAEVQLVQSGAEVKKPGASVKVSCKASGYTFTGYYMHWVRQAPGQGLEWMGWINPNSGGTNYAQKFQGRVTMTRDTSISTAYMELSSLRSEDTAVYYCARDKRYSSGWYENWGQGTLVTVSSGGGGSGGGGSGGGASNFMLTQPHSVSESPGKTVTISCTRSSGSIASKYVQWYQQRPGSSPTTVIYEDNQRPSGVPDRFSGSIDISSNSASLTISGLKTEDEADYFCQSYDSSSVIFGGGTKLTVLGQPAAAGGGGSQVQLQQSGAELVRPGSSVKISCKASGYAFSSYWMNWVKQRPGQGLEWIGQIWPGDGDTNYNGKFKGKATLTADESSSTAYMQLSSLASEDSAVYFCARRETTTVGRYYYAMDYWGQGTSVTVSSASAAVECPPCPAPPVAGPSVFLFPPKPKDTLMISRTPEVTCVVVDVSHEDPEVQFNWYVDGVEVHNAKTKPREEQFNSTFRVVSVLTVVHQDWLNGKEYKCKVSNKGLPAPIEKTISKTKGQPREPQVYTLPPSREEMTKNQVSLTCLVKGFYPSDIAVEWESNGQPENNYKTTPPMLDSDGSFFLYSKLTVDKSRWQQGNVFSCSVMHEALHNHYTQKSLSLSPGK

Activity (EC50 for activation of Jurkat line cells, pM): 3.7 pM
B4: 309_04_A04 (bispecific antibody)
chain: DIQLTQTPASLAVSLGQRATISCKASQSVDYDGDSYLNWYQQIPGQPPKLLIYDASNLVSGIPPRFSGSGSGTDFTLNIHPVEKVDAATYHCQQSTEDPWTFGGGTKLEIKGGSGGAMAQVQLQQWGAGLLKPSETLSLTCAVYGGSFSGYYWSWIRQPPGKGLEWIGEISRSGTTNYNSSLKSRVTISVDTSKNQFSLKLSSVTAADTAVYYCARATRNGVFDYWGQGTLVTVSSGGGGSGGGGSGGGASNFMLTQPHSVSESPGKTVTISCTRSSGSIASNYVQWYQQRPGSAPSTVIYEDNQRPSGVPDRFSGSIDSSSNSASLTISGLKTEDEADYYCQSYDSGVVFGGGTKLTVLGQPAAAGGGGSQVQLQQSGAELVRPGSSVKISCKASGYAFSSYWMNWVKQRPGQGLEWIGQIWPGDGDTNYNGKFKGKATLTADESSSTAYMQLSSLASEDSAVYFCARRETTTVGRYYYAMDYWGQGTSVTVSSASAAVECPPCPAPPVAGPSVFLFPPKPKDTLMISRTPEVTCVVVDVSHEDPEVQFNWYVDGVEVHNAKTKPREEQFNSTFRVVSVLTVVHQDWLNGKEYKCKVSNKGLPAPIEKTISKTKGQPREPQVYTLPPSREEMTKNQVSLTCLVKGFYPSDIAVEWESNGQPENNYKTTPPMLDSDGSFFLYSKLTVDKSRWQQGNVFSCSVMHEALHNHYTQKSLSLSPGK
